From patent US20100254993A1 (Novartis, published 2010) come the findings set out here.

The target of assay [1] is T1, recombinant human interleukin-4 (human, UniProt P05112 25-153).
T1 sequence (looked up): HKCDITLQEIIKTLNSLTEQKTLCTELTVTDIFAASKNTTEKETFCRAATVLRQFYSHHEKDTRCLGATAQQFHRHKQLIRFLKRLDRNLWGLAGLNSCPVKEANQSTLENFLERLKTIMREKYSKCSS
Kind of assay: cell-based or functional assay.

Assay [2] concerns the target T1, recombinant human interleukin-4. Kind of assay: SPR (BIAcore 2000), mAb captured on anti-human IgG CM-5 chip, rhIL-4 as analyte. How it is done:
Affinity measurements of human mAbs of the present invention are carried on a BIAcore™ 2000 instrument. […] A subsequent application of rhIL-4 results in a further change of the refractory properties, which allows determination of the association rate (Kₒₙ, on rate) as well as the dissociation rate (Koff, off rate) and the […] of these two, the affinity (Kd, dissociation constant, given in pM), according to the BIAevaluation 3.0 software.
In general terms: Surface plasmon resonance follows binding to a sensor surface in real time, without labels.

B1: Example 4 antibody comprising SEQ ID NO:25 and SEQ ID NO:26 (antibody, human IgG1, V domains shown)
VH: QVQLVQSGAEVKKPGSSVKVSCKASGDTFSSYAISWVRQAPGQGFEWMGGIIPVIGTVNYEERFQDRVTITADNSTSTAYMELTSLRSEDTAVYFCGREEGFLDYWGQGTLVTVSS
VL: AIQLTQSPSSLSASVGDRVTITCRASQGISSALAWYQQKPGKAPKLLIYDASSLESGVPSRFSGSGSGTDFTLTISSLQPEDFATYYCQQFNSYPLLTFGGGTKVEIKR
notes: also called Ex. 4
By Kd is commonly meant a measure of binding affinity in units of concentration. For the molecule B1, in assay [1], the “BAF cell proliferation IC50” value came to 0.688 nM, the “IL-4 induced CD23 IC50” value was determined as 0.848 nM and the “IL-4 induced IgE IC50” value is 7.57 nM. Also, the Kd in assay [2] stood at 0.066 nM.

B2: Example 3 antibody comprising SEQ ID NO:17 and SEQ ID NO:18 (antibody, human IgG1, V domains shown)
VH: QVQLVESGGGMVQPGRSLRLSCAASGFTLSSYGMHWVRQAPGKGLEWVTVIWYDGNNQYYADSVKGRFTISRDNSKNTLYLQMNSLRAEDTAVYYCAREGSWSPDIFDIWGQGTMVTVSS
VL: AIQLTQSPSSLSASVGDRVTITCRASQGISSYLAWYQQKPGKAPKLLIYDASSLESGVPSRFSGSGSGTDFTLTISSLQPEDFATYYCQQFNSYPITFGQGTRLEIKR
notes: also called Ex. 3
With B2, in assay [1], the “BAF cell proliferation IC50” value amounted to 0.084 nM, the “IL-4 induced CD23 IC50” value turned out to be 0.873 nM and the “IL-4 induced IgE IC50” value was found to be 7.81 nM. In assay [2], the Kd was 0.089 nM.

B3: Example 5 antibody comprising SEQ ID NO:33 and SEQ ID NO:34 (antibody, human IgG1, V domains shown)
VH: QVQLVESGGGVVQPGRSLRLSCAASGFTFSCCGMHWVRQAPGKGLEWVAVIWYDGSNKYYADSVKGRFTISRDTSKNTLYLQMNSLRAEDTAVYYCATDSSGSFYEYFQHWGQGTLVTVSS
VL: AIQLTQSPSSLSASVGDRVTITCRASQGINSALAWYQQKPGKAPKLLIYDASSLESGVPSRFSGSGSGTDFTLTISSLQPEDFATYYCQQFNSYPYTFGQGTKLEIKR
notes: also called Ex. 5
Consider B3, for which, in assay [1], the “BAF cell proliferation IC50” value was determined as 0.218 nM, the “IL-4 induced CD23 IC50” value was 2.83 nM and the “IL-4 induced IgE IC50” value turned out to be 9.94 nM. For the same molecule, the Kd in assay [2] came to 0.084 nM.

B4: Example 2 antibody comprising SEQ ID NO:9 and SEQ ID NO:10 (antibody, human IgG1, V domains shown)
VH: QVQLVESGGGVVQPGRSLRLSCAASGFTLSSFGMHWVRQAPGKGLEWVAVIWYDGSNEYYADSVKGRFTTSRDNSKNTLYLQMNSLRAEDTAVYYCAREGSWSPDIFDIWGQGTMVTVSS
VL: AIQLTQSPSSLSASVGDRVTITCRTSQGIRSALAWYQQNPGKAPKLLIYDASSLESGVPSRFSGSGSGTDFTLTISSLQPEDFATYYCQQFNSYPVTFGQGTRLEIKR
notes: also called Ex. 2
On to B4, for which, in assay [1], the “BAF cell proliferation IC50” value turned out to be 0.05 nM, the “IL-4 induced CD23 IC50” value turned out to be 0.463 nM and the “IL-4 induced IgE IC50” value amounted to 5.34 nM. For the same molecule, the Kd in assay [2] was 0.059 nM.

B5: Example 1 antibody comprising SEQ ID NO:1 and SEQ ID NO:2 (human IL-4 specific monoclonal antibody) (antibody, human IgG1, V domains shown)
VH: QVQLVESGGGVVQPGRSLRLSCAASGFTFSSYAMHWVRQAPGKGLEWVTFIWDDGSFKYYAESVKGRFTISRDNSKNTLYLQMNSLRAEDTAVYYCAREGSWSPDIFDIWGQGTMVTVSS
VL: AIQLTQSPSSLSASVGDRVTITCRASQGISRALAWYQQKPGKAPKLLIYDASSLESGVPSRFSGSGSGTDFTLTISSLQPEDFATYYCQQFNSYPITFGQGTRLEIKR
notes: also called Ex. 1; mAb as defined by CDRs as described in claim 2a)
For the molecule B5, in assay [1], the “BAF cell proliferation IC50” value turned out to be 0.03 nM, the “IL-4 induced CD23 IC50” value came to 0.334 nM and the “IL-4 induced IgE IC50” value was determined as 2.81 nM. Besides, the Kd in assay [2] came out at 0.043 nM.
